Measured values reported in US20250011363A1, “OPTIMIZED SHORTENED PEPTIDE THAT BINDS TO ACETYLCHOLINE RECEPTOR, AND USE THEREOF” (SKINMED CO., LTD., priority 2021, published 2025).

What follows are binders tested against acetylcholine receptor (assay: SPR, AchR immobilised on CM5 chip, peptide 10 uM).

| Binder | Binding affinity (RU) |
| --- | --- |
| RRMKVK [6mer-1-1054] | 37 |
| RRETVK [6mer-1-1059] | 39 |
| RRICMR [6mer-1-1062] | 27 |
| RKYTPK [6mer-1-1053] | 27 |
| KRCNDK [6mer-1-1055] | 40 |
| RNTPKR [6mer-2-602] | 24 |
| RKPFRR [6mer-2-606] | 15 |
| KRKPVR [6mer-1-1057] | 43 |
| KDNGRK [6mer-2-615] | 27 |
| KAWIRR [6mer-2-614] | 19 |
| KRYNVR [6mer-1-1060] | 21 |
| RRNTAK [6mer-1-1056] | 27 |
| RCNHKK [6mer-2-608] | 32 |
| KEPIRK [6mer-2-604] | 16 |
| KRFPWR [6mer-1-1058] | 21 |
| RRISIR [6mer-1-1061] | 41 |
| KFHARR [6mer-2-603] | 32 |
| KNCGKK [6mer-2-605] | 17 |
| RKPTAK [6mer-1-1064] | 41 |
| RKNPKR [6mer-2-610] | 32 |
| KNSHKK [6mer-2-601] | 25 |
| KKWVKR [6mer-2-607] | 31 |
| RDSDRR [6mer-2-609] | 24 |
| KAANRR [6mer-2-613] | 18 |
| RIKMRR [6mer-2-611] | 22 |
| RDCVRK [6mer-2-612] | 17 |
| KKIDHK [6mer-1-1063] | 25 |

Results, then the binder that gave them:

| Binding affinity (RU) | Binder |
| --- | --- |
| 23 | KHTVKK [6mer-2-639] |
| 21 | KFKKKR [6mer-2-640] |
| 12 | KYDIKR [6mer-2-632] |
| 13 | KHAHRR [6mer-2-623] |
| 12 | KANPKK [6mer-2-643] |
| 30 | RCWAKR [6mer-2-638] |
| 26 | REPHRK [6mer-2-616] |
| 33 | KPPIRK [6mer-2-624] |
| 27 | RYAFRR [6mer-2-630] |
| 33 | RFPDKK [6mer-2-625] |
| 30 | RKSFKR [6mer-2-628] |
| 13 | RYTNKR [6mer-2-622] |
| 32 | RPPVRK [6mer-2-637] |
| 11 | KECVRR [6mer-2-635] |
| 33 | RYEHRK [6mer-2-634] |
| 12 | REPNRR [6mer-2-644] |
| 26 | RPPDRR [6mer-2-619] |
| 17 | KYAVKR [6mer-2-633] |
| 21 | KMAPKR [6mer-2-636] |
| 12 | KHHKKR [6mer-2-618] |
| 32 | RFCWKK [6mer-2-629] |
| 33 | RHTGRR [6mer-2-620] |
| 33 | KKTARR [6mer-2-627] |
| 32 | RHEPKR [6mer-2-621] |
| 12 | REEFRR [6mer-2-641] |
| 32 | RCNGRR [6mer-2-617] |
| 33 | KNSEKK [6mer-2-626] |
| 16 | KTENKK [6mer-2-642] |
| 16 | KYCMKR [6mer-2-631] |
